From article PMC7000336, “Structural insights and activating mutations in diverse pathologies define mechanisms of deregulation for phospholipase C gamma enzymes” (EBioMedicine, 2020)
Blank lines part the entries; values can stand above or below the molecule they belong to.

What was measured:
PLCγ1 (Homo sapiens) = PLCγ1 (Homo sapiens) (UniProt P19174); conditions: cited from earlier work
Full-length human PLCγ1 = molecular target: T1, Full-length human PLCγ1 (human, UniProt P19174 1-1290); experiment: cryo-EM structure; complex of PLCγ1 and FGFR1-1P (mixed 1:10, purified by SEC), cross-linked with BS3 and purified again; 0.6 mg/ml on grids; 25 mM HEPES, 150 mM NaCl, 2 mM TCEP, pH 7.5; no ATP; Titan Krios with Volta phase plate; map at 5–8 Å with known domain structures docked as rigid bodies; conditions: both partners purified
T1 construct: phospholipase C gamma 1 (PLCγ1), human, full length; YFP fusions are named only for the lipid array (LiMA), so Myc is surmised here; Cloned in a Gateway-modified pTriEx4 and purified as a His-tagged protein; No removal of tags is described; also called hPLCγ1; intact PLCγ1; source: Freestyle 293F cells, transfected, purified (HisTrap, Superdex 200)
T1 sequence (looked up): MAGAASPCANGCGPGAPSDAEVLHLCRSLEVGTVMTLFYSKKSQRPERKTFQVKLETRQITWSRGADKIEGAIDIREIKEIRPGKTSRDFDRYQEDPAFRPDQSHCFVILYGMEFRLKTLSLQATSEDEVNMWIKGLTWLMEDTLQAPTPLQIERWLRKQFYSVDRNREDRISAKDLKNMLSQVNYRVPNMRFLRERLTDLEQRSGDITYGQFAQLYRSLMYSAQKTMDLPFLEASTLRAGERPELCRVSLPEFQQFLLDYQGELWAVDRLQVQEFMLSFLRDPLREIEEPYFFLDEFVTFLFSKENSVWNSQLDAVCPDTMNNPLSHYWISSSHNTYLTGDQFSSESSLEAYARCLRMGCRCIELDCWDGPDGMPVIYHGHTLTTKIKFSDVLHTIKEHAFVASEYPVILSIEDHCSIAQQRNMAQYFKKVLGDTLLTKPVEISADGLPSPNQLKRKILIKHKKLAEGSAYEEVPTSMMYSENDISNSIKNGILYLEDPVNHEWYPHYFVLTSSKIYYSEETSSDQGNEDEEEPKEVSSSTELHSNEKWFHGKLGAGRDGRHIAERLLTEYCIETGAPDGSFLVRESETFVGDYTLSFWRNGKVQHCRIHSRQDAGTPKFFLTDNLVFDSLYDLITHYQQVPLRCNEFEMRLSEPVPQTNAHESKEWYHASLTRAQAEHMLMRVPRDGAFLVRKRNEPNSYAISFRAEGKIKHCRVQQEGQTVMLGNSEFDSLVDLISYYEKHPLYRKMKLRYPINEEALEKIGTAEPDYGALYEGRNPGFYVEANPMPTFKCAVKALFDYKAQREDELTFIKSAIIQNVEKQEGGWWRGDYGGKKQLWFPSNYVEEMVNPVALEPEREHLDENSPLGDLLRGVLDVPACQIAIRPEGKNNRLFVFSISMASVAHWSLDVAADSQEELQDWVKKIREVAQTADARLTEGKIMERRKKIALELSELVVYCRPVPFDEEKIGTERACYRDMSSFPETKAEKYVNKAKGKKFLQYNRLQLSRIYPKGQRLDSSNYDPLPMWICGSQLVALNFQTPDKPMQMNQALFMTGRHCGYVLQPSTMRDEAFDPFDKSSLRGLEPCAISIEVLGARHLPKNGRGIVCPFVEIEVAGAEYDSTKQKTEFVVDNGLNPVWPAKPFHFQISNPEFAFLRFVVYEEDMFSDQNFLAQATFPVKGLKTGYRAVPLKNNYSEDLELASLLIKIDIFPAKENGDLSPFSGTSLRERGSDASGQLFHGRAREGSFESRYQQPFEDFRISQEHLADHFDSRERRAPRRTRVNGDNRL

Molecule: FGFR1 intracellular portion (from UniProt P11362)
Kd (PLCγ1 (Homo sapiens)): 5 nM

binding result (Full-length human PLCγ1): binds
B1: Human FGFR1 kinase domain (456–774, L457V, Y463F, C488A, Y583F, C584S, Y585F, Y653F and Y654F), FGFR1-1P (domain or fragment, UniProt P11362 456-774, looked up)
chain: MVAGVSEFELPEDPRWELPRDRLVLGKPLGEGAFGQVVLAEAIGLDKDKPNRVTKVAVKMLKSDATEKDLSDLISEMEMMKMIGKHKNIINLLGACTQDGPLYVIVEYASKGNLREYLQARRPPGLEFSFNPSHNPEEQLSSKDLVSCAYQVARGMEYLASKKCIHRDLAARNVLVTEDNVMKIADFGLARDIHHIDFFKKTTNGRLPVKWMAPEALFDRIYTHQSDVWSFGVLLWEIFTLGGSPYPGVPVEELFKLLKEGHRMDKPSNCTNELYMMMRDCWHAVPSQRPTFKQLVEDLDRIVALTSNQEYLDLSMPLD
modifications: phosphotyrosine at 766 (pY766; FGFR1-1P)
notes: The methods call the protein in the complex FGFR1-1P, and the results speak of pY766 in its C-terminal tail; How the phosphorylation was made is not described here; also called FGFR1int; FGFRint; source: E. coli C41 (DE3), purified (HisTrap, Ulp1 cleavage, HiTrap Q, Superdex 75); not shown: His tag, N-terminal, cleaved; SUMO (from the vector pOPINS, cut by Ulp1), N-terminal, cleaved
